Laboratory results as given in publication PMC11775523.

Tested on: Exo1 (exonuclease)
Assay: ITC
Conditions: ITC: 67 mM glycine-KOH, 6.7 mM MgCl2, 1 mM TCEP, 37 C (Methods: 100 uM aptamer into 10 uM Exo1; Results text: 10 uM into 1 uM). Cells: Dulbecco's PBS, 5 mM …

Sequence	Kd [µM]	Kd (5'-terminal GalNAc-modified base (N1, printed X), position 12 is also printed X, but the text describes only 5' modification, so likely a misprint for T) [µM]
ATCTAACTGCTGCGCCGCCGGGAAAATACTGTACGGTTAGA [Sgc8 (S01)]	0.001	–
NATCTAACTGCNGCGCCGCCGGGAAAATACTGTACGGTTAGAT [GS01 (5' GalN-Sgc8)]	–	662
